Results published in patent US20220048967A1 (published 2022).
Numbered stars: 1 amine (or outer) side, 2 acyl side, 3 side chain; on linkers, the order of the positions; unused ones are H or OH. Square brackets hold non-standard residues; d marks the D form. Side chains are listed from the residue outwards. Ends that are not written are not given here. * marks the point of attachment. C20 diacid = O=C(O)CCCCCCCCCCCCCCCCCCC(=O)*; γGlu = O=C(O)[C@H](CCC(=O)[*:2])N[*:1]; AEEA = NCCOCCOCC(=O)O; Aib = CC(C)(N)C(=O)O

T1: human GIP receptor (human, UniProt P48546 22-466)
T1 sequence (looked up): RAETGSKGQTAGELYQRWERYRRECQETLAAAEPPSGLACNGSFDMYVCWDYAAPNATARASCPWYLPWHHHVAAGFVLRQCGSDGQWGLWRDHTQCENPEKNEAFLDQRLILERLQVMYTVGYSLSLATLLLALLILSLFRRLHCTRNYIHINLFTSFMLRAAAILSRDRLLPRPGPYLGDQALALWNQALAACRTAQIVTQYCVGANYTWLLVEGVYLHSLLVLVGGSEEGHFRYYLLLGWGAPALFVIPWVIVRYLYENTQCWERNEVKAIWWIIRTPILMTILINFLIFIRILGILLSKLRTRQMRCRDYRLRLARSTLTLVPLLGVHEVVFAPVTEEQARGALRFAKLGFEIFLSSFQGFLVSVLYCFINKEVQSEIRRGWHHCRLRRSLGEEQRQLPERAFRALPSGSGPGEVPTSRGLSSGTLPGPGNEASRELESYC


What was measured:
human GIP receptor = target: T1, human GIP receptor; assay: cell-based or functional assay
human GLP-1 receptor = human GLP-1 receptor (human, UniProt P43220 24-463); assay: cell-based or functional assay

| Binder | hGIPR cAMP EC50 ratio (human GIP receptor) | hGIPR cAMP Rel EC50 (human GIP receptor) | hGLP1R cAMP EC50 ratio (human GLP-1 receptor) | hGLP1R cAMP Rel EC50 (human GLP-1 receptor) |
| --- | --- | --- | --- | --- |
| Y[Aib]EGTFTSDYSILLDKIAQ[Aib]AFIEYLIEGGK([AEEA-AEEA-γGlu-C20 diacid])SSGAPPPS-NH2 (N-terminus assumed; SMILES CC[C@H](C)[C@H](NC(=O)[C@H](CCCCN)NC(=O)[C@H](CC(=O)O)NC(=O)[C@H](CC(C)C)NC(=O)[C@H](CC(C)C)NC(=O)[C@@H](NC(=O)[C@H](CO)NC(=O)[C@H](Cc1ccc(O)cc1)NC(=O)[C@H](CC(=O)O)NC(=O)[C@H](CO)NC(=O)[C@@H](NC(=O)[C@H](Cc1ccccc1)NC(=O)[C@@H](NC(=O)CNC(=O)[C@H](CCC(=O)O)NC(=O)C(C)(C)NC(=O)[C@@H](N)Cc1ccc(O)cc1)[C@@H](C)O)[C@@H](C)O)[C@@H](C)CC)C(=O)N[C@@H](C)C(=O)N[C@@H](CCC(N)=O)C(=O)NC(C)(C)C(=O)N[C@@H](C)C(=O)N[C@@H](Cc1ccccc1)C(=O)N[C@H](C(=O)N[C@@H](CCC(=O)O)C(=O)N[C@@H](Cc1ccc(O)cc1)C(=O)N[C@@H](CC(C)C)C(=O)N[C@H](C(=O)N[C@@H](CCC(=O)O)C(=O)NCC(=O)NCC(=O)N[C@@H](CCCCNC(=O)COCCOCCNC(=O)COCCOCCNC(=O)CC[C@H](NC(=O)CCCCCCCCCCCCCCCCCCC(=O)O)C(=O)O)C(=O)N[C@@H](CO)C(=O)N[C@@H](CO)C(=O)NCC(=O)N[C@@H](C)C(=O)N1CCC[C@H]1C(=O)N1CCC[C@H]1C(=O)N1CCC[C@H]1C(=O)N[C@@H](CO)C(N)=O)[C@@H](C)CC)[C@@H](C)CC) [Example 40] | 1.06 | 0.136 nM | 0.0801 | 0.746 nM |
| Y[Aib]EGTFTSDYSILLDKIAQ[Aib]AFIEYLIEGK([AEEA-AEEA-γGlu-C20 diacid])PSSGAPPPS-NH2 (N-terminus assumed; SMILES CC[C@H](C)[C@H](NC(=O)[C@H](CCCCN)NC(=O)[C@H](CC(=O)O)NC(=O)[C@H](CC(C)C)NC(=O)[C@H](CC(C)C)NC(=O)[C@@H](NC(=O)[C@H](CO)NC(=O)[C@H](Cc1ccc(O)cc1)NC(=O)[C@H](CC(=O)O)NC(=O)[C@H](CO)NC(=O)[C@@H](NC(=O)[C@H](Cc1ccccc1)NC(=O)[C@@H](NC(=O)CNC(=O)[C@H](CCC(=O)O)NC(=O)C(C)(C)NC(=O)[C@@H](N)Cc1ccc(O)cc1)[C@@H](C)O)[C@@H](C)O)[C@@H](C)CC)C(=O)N[C@@H](C)C(=O)N[C@@H](CCC(N)=O)C(=O)NC(C)(C)C(=O)N[C@@H](C)C(=O)N[C@@H](Cc1ccccc1)C(=O)N[C@H](C(=O)N[C@@H](CCC(=O)O)C(=O)N[C@@H](Cc1ccc(O)cc1)C(=O)N[C@@H](CC(C)C)C(=O)N[C@H](C(=O)N[C@@H](CCC(=O)O)C(=O)NCC(=O)N[C@@H](CCCCNC(=O)COCCOCCNC(=O)COCCOCCNC(=O)CC[C@H](NC(=O)CCCCCCCCCCCCCCCCCCC(=O)O)C(=O)O)C(=O)N1CCC[C@H]1C(=O)N[C@@H](CO)C(=O)N[C@@H](CO)C(=O)NCC(=O)N[C@@H](C)C(=O)N1CCC[C@H]1C(=O)N1CCC[C@H]1C(=O)N1CCC[C@H]1C(=O)N[C@@H](CO)C(N)=O)[C@@H](C)CC)[C@@H](C)CC) [Example 39] | 1.07 | 0.133 nM | 0.0323 | 1.92 nM |
| Y[Aib]EGTFTSDYSILLDKIAQ[Aib]AFIEYLIEK([AEEA-AEEA-γGlu-C20 diacid])GPSSGAPPPS-NH2 (N-terminus assumed; SMILES CC[C@H](C)[C@H](NC(=O)[C@H](CCCCN)NC(=O)[C@H](CC(=O)O)NC(=O)[C@H](CC(C)C)NC(=O)[C@H](CC(C)C)NC(=O)[C@@H](NC(=O)[C@H](CO)NC(=O)[C@H](Cc1ccc(O)cc1)NC(=O)[C@H](CC(=O)O)NC(=O)[C@H](CO)NC(=O)[C@@H](NC(=O)[C@H](Cc1ccccc1)NC(=O)[C@@H](NC(=O)CNC(=O)[C@H](CCC(=O)O)NC(=O)C(C)(C)NC(=O)[C@@H](N)Cc1ccc(O)cc1)[C@@H](C)O)[C@@H](C)O)[C@@H](C)CC)C(=O)N[C@@H](C)C(=O)N[C@@H](CCC(N)=O)C(=O)NC(C)(C)C(=O)N[C@@H](C)C(=O)N[C@@H](Cc1ccccc1)C(=O)N[C@H](C(=O)N[C@@H](CCC(=O)O)C(=O)N[C@@H](Cc1ccc(O)cc1)C(=O)N[C@@H](CC(C)C)C(=O)N[C@H](C(=O)N[C@@H](CCC(=O)O)C(=O)N[C@@H](CCCCNC(=O)COCCOCCNC(=O)COCCOCCNC(=O)CC[C@H](NC(=O)CCCCCCCCCCCCCCCCCCC(=O)O)C(=O)O)C(=O)NCC(=O)N1CCC[C@H]1C(=O)N[C@@H](CO)C(=O)N[C@@H](CO)C(=O)NCC(=O)N[C@@H](C)C(=O)N1CCC[C@H]1C(=O)N1CCC[C@H]1C(=O)N1CCC[C@H]1C(=O)N[C@@H](CO)C(N)=O)[C@@H](C)CC)[C@@H](C)CC) [Example 38] | 0.967 | 0.147 nM | 0.0217 | 2.82 nM |
| Y[Aib]EGTFTSDYSILLDKIAQ[Aib]AFIEYLK([AEEA-AEEA-γGlu-C20 diacid])EGGPSSGAPPPS-NH2 (N-terminus assumed; SMILES CC[C@H](C)[C@H](NC(=O)[C@H](CCCCN)NC(=O)[C@H](CC(=O)O)NC(=O)[C@H](CC(C)C)NC(=O)[C@H](CC(C)C)NC(=O)[C@@H](NC(=O)[C@H](CO)NC(=O)[C@H](Cc1ccc(O)cc1)NC(=O)[C@H](CC(=O)O)NC(=O)[C@H](CO)NC(=O)[C@@H](NC(=O)[C@H](Cc1ccccc1)NC(=O)[C@@H](NC(=O)CNC(=O)[C@H](CCC(=O)O)NC(=O)C(C)(C)NC(=O)[C@@H](N)Cc1ccc(O)cc1)[C@@H](C)O)[C@@H](C)O)[C@@H](C)CC)C(=O)N[C@@H](C)C(=O)N[C@@H](CCC(N)=O)C(=O)NC(C)(C)C(=O)N[C@@H](C)C(=O)N[C@@H](Cc1ccccc1)C(=O)N[C@H](C(=O)N[C@@H](CCC(=O)O)C(=O)N[C@@H](Cc1ccc(O)cc1)C(=O)N[C@@H](CC(C)C)C(=O)N[C@@H](CCCCNC(=O)COCCOCCNC(=O)COCCOCCNC(=O)CC[C@H](NC(=O)CCCCCCCCCCCCCCCCCCC(=O)O)C(=O)O)C(=O)N[C@@H](CCC(=O)O)C(=O)NCC(=O)NCC(=O)N1CCC[C@H]1C(=O)N[C@@H](CO)C(=O)N[C@@H](CO)C(=O)NCC(=O)N[C@@H](C)C(=O)N1CCC[C@H]1C(=O)N1CCC[C@H]1C(=O)N1CCC[C@H]1C(=O)N[C@@H](CO)C(N)=O)[C@@H](C)CC) [Example 36] | 0.458 | 0.309 nM | 0.0268 | 2.29 nM |
| Y[Aib]EGTFTSDYSILLDKIAQ[Aib]AFIEYLIK([AEEA-AEEA-γGlu-C20 diacid])GGPSSGAPPPS-NH2 (N-terminus assumed; SMILES CC[C@H](C)[C@H](NC(=O)[C@H](CCCCN)NC(=O)[C@H](CC(=O)O)NC(=O)[C@H](CC(C)C)NC(=O)[C@H](CC(C)C)NC(=O)[C@@H](NC(=O)[C@H](CO)NC(=O)[C@H](Cc1ccc(O)cc1)NC(=O)[C@H](CC(=O)O)NC(=O)[C@H](CO)NC(=O)[C@@H](NC(=O)[C@H](Cc1ccccc1)NC(=O)[C@@H](NC(=O)CNC(=O)[C@H](CCC(=O)O)NC(=O)C(C)(C)NC(=O)[C@@H](N)Cc1ccc(O)cc1)[C@@H](C)O)[C@@H](C)O)[C@@H](C)CC)C(=O)N[C@@H](C)C(=O)N[C@@H](CCC(N)=O)C(=O)NC(C)(C)C(=O)N[C@@H](C)C(=O)N[C@@H](Cc1ccccc1)C(=O)N[C@H](C(=O)N[C@@H](CCC(=O)O)C(=O)N[C@@H](Cc1ccc(O)cc1)C(=O)N[C@@H](CC(C)C)C(=O)N[C@H](C(=O)N[C@@H](CCCCNC(=O)COCCOCCNC(=O)COCCOCCNC(=O)CC[C@H](NC(=O)CCCCCCCCCCCCCCCCCCC(=O)O)C(=O)O)C(=O)NCC(=O)NCC(=O)N1CCC[C@H]1C(=O)N[C@@H](CO)C(=O)N[C@@H](CO)C(=O)NCC(=O)N[C@@H](C)C(=O)N1CCC[C@H]1C(=O)N1CCC[C@H]1C(=O)N1CCC[C@H]1C(=O)N[C@@H](CO)C(N)=O)[C@@H](C)CC)[C@@H](C)CC) [Example 37] | 0.532 | 0.269 nM | 0.0533 | 1.15 nM |
